Test results from publication PMC12554172, “Systematic analysis of the RGS2 degron reveals characteristics of substrate recognition by the F-box protein FBXO44” (The Journal of Biological Chemistry, 2025).
Numbering of substitutions follows the chain as printed. Numbers in names are those of the source. Entries after “also recorded” stand apart in the source; their conditions may differ.

Columns and labels:
[1] = system: FBXO44; conditions: ref [24]; cited from earlier work
From the text: However, evidence of a direct interaction between RGS2 and FBXO44 has, until now, not yet been established. Thus, we first aimed to verify that purified FBXO44 would bind the degron sequence in vitro. […] This also c ...

[2] = system: RGS2-HA; assay: Coimmunoprecipitation of FLAG-FBXO44 mutant with RGS2-HA; assay type: cell-based; conditions: HEK-293T cells, HA tag IP, normalized to input, % of WT, three independent experiments
Method: (§1) Figure 6 Point mutations disrupt the RGS2–FBXO44 association. Co-IP was performed in HEK-293T cells transiently transfected with RGS2-HA and FLAG-FBXO44 (WT and mutants as indicated). […] Representative blot and quantification of four independent experiments. […] Levels of each protein were normalized to input and expressed as % of WT. Representative blot and quantification of three independent experiments. ∗p < 0.05; ∗∗∗∗p < 0.0001 using Student's unpaired t test. Co-IP, coimmunoprecipitation; FBXO44, F-box only protein 44; RGS2, regulator of G protein signaling 2.
(§2) Cells were maintained in a humidified incubator at 37 °C with 5% CO2. HEK-293T cells were obtained from the American Type Culture Collection (ATCC; CRL-1573). The American Type Culture Collection cell lines are subjected to comprehensive and repeated authentication and contamination checks, ensuring confirmation of cell line identity and ensuring that it is free of contamination prior to supplying it to users. Cells underwent periodical (every 6 months) mycoplasma testing to ensure cell lines are not compromised. Cells were cultured in Dulbecco's modified Eagle's medium (Gibco, catalog no.: 11995) and supplemented with 10% fetal bovine serum (Gibco, catalog no.: 16000). Cells were transfected with DNA plasmids using Lipofectamine 3000 (Invitrogen) under reduced serum conditions in Opti-MEM (Gibco, catalog no.: 31985). […]

[3] = system: HEK-293T cells; assay: RGS2 protein levels, baseline and with proteasome inhibitor MG-132; assay type: cell-based, human; conditions: for change of RGS2 protein levels with MG-132 / change of RGS2 protein levels with MG-132 (Fig. S4): MG-132 10 μM, 4 h
From the text: Representative Western blot and quantification of three independent experiments. […] Representative Western blot and quantification of three independent experiments. Representative Western blot (D), quantification of knockdown efficiency (E), and effects on RGS protein levels (F) when FBXO44 is knocked down using siRNA. […] Result of three independent experiments. ∗p < 0.05; ∗∗p < 0.01; ∗∗∗p < 0.001 using two-way ANOVA followed by Tukey's post hoc test for pairwise comparisons (C, E, and F). FBXO44, F-box only protein 44; HEK-293T, human embryonic kidney-293T cell line; RGS2, regulator of G protein signaling 2.
(§3) Cells were harvested on ice in lysis buffer containing protease inhibitors (50 mM Tris–HCl [pH 7.4], 5 mM NaCl, 0.5 mM EDTA, 1% Triton X-100, 10% cOmplete Protease Inhibitor Cocktail EDTA-free). Lysates were bath sonicated for 10 min at 4 °C, centrifuged at 6000g for 3 min, and the supernatant was used for SDS-PAGE and immunoblotting. Total protein concentration was determined using the Pierce BCA Protein Assay Kit. Samples were diluted to 1 μg/μl in protein sample loading buffer (Li-Cor Biosciences).
(§4) Equal amounts of protein in each lane were resolved on a 12% SDS-PAGE gel for 1 h at 160 V. Samples were transferred to an Immobilon-FL PVDF membrane (Millipore) and subjected to Western immunoblot analysis using Li-Cor blocking buffer for both blocking and antibody diluents. Membranes were blocked for 1 h, then incubated for 2 h in primary antibodies as described under “Antibodies,” and finally incubated for 1 h with IRDye secondary antibodies directed at the species of the primary antibody. Following each antibody incubation, membranes were washed four times in PBS with 0.1% Tween-20. Membranes were imaged using an Azure600 imaging system (Azure Biosystems).
Figure S4. Effect of RGS2 mutations on protein stability. Representative western blot and quantification of five or six independent experiments (varies by mutation). The proteasome inhibitor MG-132 (10 μM, 4 h) […]
P15R were predicted to destabilize RGS2, due to increased binding to FBXO44 in the peptide microarray. […]
significant. *P<0.05; ***P<0.001 using two-way ANOVA followed by Tukey’s post hoc test for pairwise

[4] = system: HEK-293T cells; assay: Cycloheximide (CHX) chase assay; assay type: cell-based, human; conditions: for RGS2 protein half-life (t1/2): CHX 50 μM, Western blot, three independent experiments
Method: HEK-293T cells in 12-well plates, transiently transfected with either RGS2^WT or RGS2^C13S, were treated with CHX (50 μM) at indicated time points. Cells were harvested as described later and subjected to SDS-PAGE and Western blot.
as §3, §4

[5] = system: FBXO44; assay: siRNA-mediated FBXO44 knockdown, Western blot; assay type: cell-based, human; conditions: HEK-293T cells; for RGS2 protein levels upon FBXO44 knockdown: FBXO44 siRNA, Fig. 7, D and F, three independent experiments
Method: Using a pool of 4 siRNA oligos (siGENOME SMART Pools; Dharmacon/Revvity), we achieved ∼70% reduction in endogenous FBXO44 protein levels in HEK-293T cells (Fig. 7, D and E).
Cells were maintained in a humidified incubator at 37 °C with 5% CO2. HEK-293T cells were obtained from the American Type Culture Collection (ATCC; CRL-1573). The American Type Culture Collection cell lines are subjected to comprehensive and repeated authentication and contamination checks, ensuring confirmation of cell line identity and ensuring that it is free of contamination prior to supplying it to users. Cells underwent periodical (every 6 months) mycoplasma testing to ensure cell lines are not compromised. Cells were cultured in Dulbecco's modified Eagle's medium (Gibco, catalog no.: 11995) and supplemented with 10% fetal bovine serum (Gibco, catalog no.: 16000). Cells were transfected with DNA plasmids using Lipofectamine 3000 (Invitrogen) under reduced serum conditions in Opti-MEM (Gibco, catalog no.: 31985). Media were changed to Dulbecco's modified Eagle's medium supplemented with 0.5% fetal bovine serum after 4 to 6 h, and cells were harvested for experiments 24 h after transfection. siRNA transfections were performed under reduced serum conditions in Opti-MEM 24 h prior to DNA transfections at 40% to 60% confluency. Cells were transfected with siGENOME SMART-POOL siRNA (FBXO44, M-019201-01-0005; Nontargeting, D-001206-13-05) from Dharmacon (Revvity) using Lipofectamine RNAiMAX (Invitrogen). Experiments were performed 72 h after transfection.
as §3, with “Biosciences). […]” for “Biosciences).”

[6] = system: FLAG-FBXO44; assay: Coimmunoprecipitation of RGS2-HA mutant with FLAG-FBXO44; assay type: cell-based; conditions: HEK-293T cells, HA tag IP, normalized to input, % of WT; four independent experiments
Method: as §1, §2

[7] = Fig. 7, B and C, three independent experiments
[8] = Fig. S4, five or six independent experiments

B1: RGS4: closely related RGS4, subject to proteasomal degradation by a different pathway (protein, UniProt P49798 1-205, looked up)
Regulator of G-protein …: MCKGLAGLPASCLRSAKDMKHRLGFLLQKSDSCEHNSSHNKKDKVVICQRVSQEEVKKWAESLENLISHECGLAAFKAFLKSEYSEENIDFWISCEEYKKIKSPSKLSPKAKKIYNEFISVQATKEVNLDSCTREETSRNMLEPTITCFDEAQKKIFNLMEKDSYRRFLKSRFYLDLVNPSSCGAEKQKGAKSSADCASLVPQCA
For B1, the “co-IP with FBXO44” value [1] is listed as “does not coimmunoprecipitate with FBXO44”.

B2: FLAG-FBXO44^Y234A: FLAG-tagged FBXO44 with Y234A mutation (protein)
chain: MAVGNINELPENILLELFTHVPARQLLLNCRLVCSLWRDLIDLVTLWKRKCLREGFITEDWDQPVADWKIFYFLRSLHRNLLHNPCAEEGFEFWSLDVNGGDEWKVEDLSRDQRKEFPNDQVKKYFVTSYYTCLKSQVVDLKAEGYWEELMDTTRPDIEVKDWFAARPDCGSKYQLCVQLLSSAHAPLGTFQPDPATIQQKSDAKWREVSHTFSNYPPGVRYIWFQHGGVDTHAWAGWYGPRVTNSSITIGPPLP
modifications: left off: FLAG, end not stated, kept
notes: FLAG-tagged FBXO44 with Y234A mutation
With B2 the “association with RGS2-HA (co-IP)” value [2] was “associates significantly less” and the “association with RGS2-HA (co-IP)” value ([2]; listed as FBXO44^Y234A) was “significantly reduced association”.

B3: RGS2^WT: full-length wild-type RGS2 expressed in HEK-293T cells (protein)
chain: MQSAMFLAVQHDCRPMDKSAGSGHKSEEKREKMKRTLLKDWKTRLSYFLQNSSTPGKPKTGKKSKQQAFIKPSPEEAQLWSEAFDELLASKYGLAAFRAFLKSEFCEENIEFWLACEDFKKTKSPQKLSSKARKIYTDFIEKEAPKEINIDFQTKTLIAQNIQEATSGCFTTAQKRVYSLMENNSYPRFLESEFYQDLCKKPQITTEPHAT
modifications: left off: HA, end not stated, kept
notes: full-length wild-type RGS2 expressed in HEK-293T cells
For B3, the “change of RGS2 protein levels with MG-132” value [3, 7] was “significantly enhanced”, the “change of RGS2 protein levels with MG-132 (Fig. S4)” value [3, 8] was “significantly increases” and the “RGS2 protein half-life (t1/2)” value ([4]; transfected HEK-293T) was 19.5 min. For the same molecule, the “RGS2 protein levels upon FBXO44 knockdown” value [5] was “significantly increases; also recorded: significant increase”.

B4: RGS2^C13S: full-length RGS2 with C13S mutation (protein)
chain: B3 chain with C13S
modifications: left off: HA, end not stated, kept
notes: full-length RGS2 with C13S mutation
In the case of B4, the “change of RGS2 protein levels with MG-132” value [3, 7] is reported as “not significantly changed; also recorded: does not significantly change”, the “basal RGS2 protein level versus RGS2^WT” value ([3]; no MG-132, Fig. 7, B and C, three independent experiments) is reported as “increased protein levels at baseline; however, this increase was not statistically significant; also recorded: upward trend in basal expression” and the “extension of RGS2 protein half-life versus RGS2^WT” value ([4]; CHX chase, RGS2^C13S versus RGS2^WT) is reported as “almost twofold; also recorded: almost double that of RGS2^WT”. The “RGS2 protein stability versus RGS2^WT (in words)” value ([4]; CHX chase, transfected HEK-293T) was “significantly stabilized”, the “RGS2 protein half-life (t1/2)” value ([4]; transfected HEK-293T) was 33.5 min and the “RGS2 protein levels upon FBXO44 knockdown” value [5] was “significantly increases RGS2^WT but not RGS2^C13S protein levels; also recorded: significant increase in RGS2^WT but not RGS2^C13S protein levels”. For the same molecule, the “RGS2^C13S expression level versus RGS2^WT in siRNA experiments” value ([5]; Fig. 7F) was “significantly higher levels than RGS2^WT”.

B5: RGS2^D12R: full-length RGS2 with D12R mutation (protein, UniProt P41220 1-211, looked up, variant D12R)
chain: B3 chain with D12R
modifications: full-length
notes: full-length RGS2 with D12R mutation
For B5, the “change of RGS2 protein levels with MG-132 (Fig. S4)” value [3, 8] was “none of these mutations resulted in significant changes in basal expression or response to MG-132” and the “basal RGS2 protein expression versus RGS2^WT (Fig. S4)” value ([3]; no MG-132, Fig. S4, five or six independent experiments) was “trend toward lower basal expression”.

B6: RGS2^C13S-HA: HA-tagged RGS2 with C13S mutation (protein)
chain: B3 chain with C13S
modifications: left off: HA, end not stated, kept
notes: HA-tagged RGS2 with C13S mutation
In the case of B6, the “association with FLAG-FBXO44 (co-IP)” value [6] is reported as “significantly reduced association; also recorded: associates significantly less”.
